Data on 23 molecules can be found in patent publication US20150175665A1 (IPSEN PHARMA S A S, published 2015).

This experiment concerns the target T1, human recombinant GIP receptor (human, UniProt P48546 22-466).
T1 construct: whole, on cells; Assayed as washed membranes of CHO-K1 cells expressing the receptor; also called hGIP receptor
T1 sequence (looked up): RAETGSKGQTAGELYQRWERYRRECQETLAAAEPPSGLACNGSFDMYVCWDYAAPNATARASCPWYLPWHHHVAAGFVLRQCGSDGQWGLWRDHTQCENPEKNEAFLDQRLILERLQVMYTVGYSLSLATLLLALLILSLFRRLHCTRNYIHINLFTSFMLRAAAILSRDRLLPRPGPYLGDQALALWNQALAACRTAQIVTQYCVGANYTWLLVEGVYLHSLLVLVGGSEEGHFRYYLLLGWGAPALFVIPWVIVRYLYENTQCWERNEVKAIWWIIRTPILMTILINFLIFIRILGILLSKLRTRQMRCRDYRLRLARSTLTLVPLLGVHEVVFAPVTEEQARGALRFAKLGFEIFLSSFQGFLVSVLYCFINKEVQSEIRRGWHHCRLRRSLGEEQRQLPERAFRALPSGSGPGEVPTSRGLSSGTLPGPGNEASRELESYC
Put plainly: displacement of [125I]GIP, membranes of CHO-K1 cells expressing human GIP receptor. How it is done: Membranes for in vitro receptor binding assays were prepared by homogenizing the CHO—K1 clonal cells expressing the human recombinant GIP receptor, with a Brinkman Polytron (setting 6, 15 sec), in ice-cold 50 mM Tris-HCl and then subjected to two centrifugations at 39,000 g for 10 minutes, with a resuspension in fresh buffer in between. For the assay, aliquots of the washed membrane preparations were incubated (100 minutes at 25° C. with 0.05 nM [¹²⁵1]GIP (2200 Ci/mmol) in 50 mM Tris-HCl, 0.1 mg/ml bacitracin, and 0.1% BSA. The final assay volume was 0.5 ml. The incubations were terminated by rapid filtration through GF/C filters (pre-soaked in 0.5% polyethylenimine) using a Brandel filtration manifold. Each tube and filter were then washed three times with 5-ml aliquots of ice-cold buffer.
Specific binding was defined as the total radioligand bound minus that bound in the presence of 1000 nM GIP.

Consider YGEGTFISDYXIAMDKIHQQDFVNWLLAQKGKKNDWKHNXTQ (3F-Tyr at 1; A5c at 11 and 40) [(3F-Tyr^1, Gly^2, A5c^11, 40)hGIP(1-42)-OH], for which the Ki came to 10.4 nM.
In the case of YGEGTFISDYXIAMDKIHQQDFVNWLLAQKGKKNDWKHNIXQ (pseudopeptide bond Ψ-(CH2-NH) between Tyr 1 and Gly 2; A5c at 11 and 41) [[Tyr^1-Ψ-(CH2-NH)Gly^2, A5c^11, 41]hGIP(1-42)-OH] it was 49 nM.

B1: (4Hppa^1, Aib^2, A5c^7, Nle^14)hGIP(1-30)-NH2 (peptide)
peptide: XXEGTFXSDYSIAXDKIHQQDFVNWLLAQK
modifications: 4Hppa (3-(4-hydroxyphenyl)propionic acid) at 1; Aib at 2; A5c at 7; Nle at 14; C-terminal amide
B1: the Ki was 12.6 nM.
In the case of XXEGTFISDYXIAXDKIHQQDFVNWLLAQK (4Hppa at 1; Aib at 2 and 11; Nle at 14; C-terminal amide) [(4Hppa^1, Aib^2, 11, Nle^14)hGIP(1-30)-NH2] it was 20.3 nM; in that of HXEGTFISDYSIXXDKIHQQDFVNWLLAQKGKKNDWKHNITQ (Aib at 2 and 13; Nle at 14) [(His^1, Aib^2, 13, Nle^14)hGIP(1-42)-OH], 3.33 nM; in that of FXEGTFISDYXIAXDKIHQQDFVNWLLAQKGKKNDWKHNITQ (4NH2CH2-Phe at 1; Aib at 2; A5c at 11; Nle at 14) [(4NH2CH2-Phe^1, Aib^2, A5c^11, Nle^14)hGIP(1-42)-OH], 95 nM.
In the case of FXEGTFISDYXIAXDKIHQQDFVNWLLAQKGKKNDWKHNITQ (3,5F-Phe at 1; Aib at 2; A5c at 11; Nle at 14) [(3,5F-Phe^1, Aib^2, A5c^11, Nle^14)hGIP(1-42)-OH] it was 26 nM; in that of XXEGTFISDYXIAMDKIHQQDFVNWLLAQKGKKNDWKHNIXQ (3-Pal at 1; Aib at 2; A5c at 11 and 41) [(3-Pal^1, Aib^2, A5c^11, 41)hGIP(1-42)-OH], 9.75 nM; in that of YXEGTFISDYXIAMDKIHQQDFVNWLLAQKGKKNDWKHNIXQ (3MeO-Tyr at 1; Aib at 2; A5c at 11 and 41) [(3MeO-Tyr^1, Aib^2, A5c^11, 41)hGIP(1-42)-OH], 1.24 nM.
In the case of FXEGTFISDYXIAXDKIHQQDFVNWLLAQKGKKNDWKHNITQ (3F-Phe at 1; Aib at 2; A5c at 11; Nle at 14) [(3F-Phe^1, Aib^2, A5c^11, Nle^14)hGIP(1-42)-OH] it was 2.7 nM.
Consider FXEGTFISDYXIAXDKIHQQDFVNWLLAQKGKKNDWKHNITQ (4NH2-Phe at 1; Aib at 2; A5c at 11; Nle at 14) [(4NH2-Phe^1, Aib^2, A5c^11, Nle^14)hGIP(1-42)-OH], for which the Ki stood at 3.4 nM.
Regarding XXEGTFISDYXIAXDKIHQQDFVNWLLAQKGKKNDWKHNITQ (Cpa (4-Cl-phenylalanine) at 1; Aib at 2; A5c at 11; Nle at 14) [(Cpa^1, Aib^2, A5c^11, Nle^14)hGIP(1-42)-OH], the Ki was 9.4 nM.
Regarding XXEGTFISDYXIAMDKIHQQDFVNWLLAQKGKKNDWKHNIXQ (3Thi at 1; Aib at 2; A5c at 11 and 41) [(3Thi^1, Aib^2, A5c^11, 41)hGIP(1-42)-OH], the inhibition constant Ki stood at 7.05 nM.
In the case of XXEGTFISDYXIAMDKIHQQDFVNWLLAQKGKKNDWKHNIXQ (Taz at 1; Aib at 2; A5c at 11 and 41) [(Taz^1, Aib^2, A5c^11, 41)hGIP(1-42)-OH] it was 3.28 nM; in that of FXEGTFISDYXIAXDKIHQQDFVNWLLAQKGKKNDWKHNITQ (3,4F-Phe at 1; Aib at 2; A5c at 11; Nle at 14) [(3,4F-Phe^1, Aib^2, A5c^11, Nle^14)hGIP(1-42)-OH], 15.7 nM.
Take YXEGTFISDYXIAMDKIHQQDFVNWLLAQKGKKNDWKHNIXQ (3OH-Tyr at 1; Aib at 2; A5c at 11 and 41) [(3OH-Tyr^1, Aib^2, A5c^11, 41)hGIP(1-42)-OH]: the Ki came out at 6.69 nM.
In the case of YXEGTFISDYXIAMDKIHQQDFVNWLLAQKGKKNDWKHNIXQ (3NO2-Tyr at 1; Aib at 2; A5c at 11 and 41) [(3NO2-Tyr^1, Aib^2, A5c^11, 41)hGIP(1-42)-OH] it was 11.2 nM; in that of XXEGTFISDYXIAXDKIHQQDFVNWLLAQKGKKNDWKHNITQ (hTyr at 1; Aib at 2; A5c at 11; Nle at 14) [(hTyr^1, Aib^2, A5c^11, Nle^14)hGIP(1-42)-OH], 77.3 nM.
Turning to FXEGTFISDYXIAXDKIHQQDFVNWLLAQKGKKNDWKHNITQ (3,4,5F-Phe at 1; Aib at 2; A5c at 11; Nle at 14) [(3,4,5F-Phe^1, Aib^2, A5c^11, Nle^14)hGIP(1-42)-OH], the Ki is 31.1 nM.
In the case of YXEGTFISDYXIAMDKIHQQDFVNWLLAQKGKKNDWKHNIXQ (Tyr(Me) at 1; Aib at 2; A5c at 11 and 41) [[Tyr(Me)^1, Aib^2, A5c^11, 41]hGIP(1-42)-OH] it was 4.5 nM.
In the case of XXEGTFISDYXIAMDKIHQQDFVNWLLAQKGKKNDWKHNIXQ (4-Pal at 1; Aib at 2; A5c at 11 and 41) [(4-Pal^1, Aib^2, A5c^11, 41)hGIP(1-42)-OH] it was 8.14 nM.
In the case of YXEGTFISDYXIAMDKIHQQDFVNWLLAQKGKKNDWKHNIXQ (Tyr(Ac) at 1; Aib at 2; A5c at 11 and 41) [[Tyr(Ac)^1, Aib^2, A5c^11, 41]hGIP(1-42)-OH] it was 0.73 nM; in that of YXEGTFISDYXIAMDKIHQQDFVNWLLAQKGKKNDWKHNIXQ (2,6Me-Tyr at 1; Aib at 2; A5c at 11 and 41) [(2,6Me-Tyr^1, Aib^2, A5c^11, 41)hGIP(1-42)-OH], 1.03 nM.
